Biological target: MobK-6His (Klebsiella pneumoniae (plasmid pIGRK))
Assay: cross-linking; about 400 ng MobK-6His incubated with increasing glutaraldehyde (0%, 0.001%, 0.0025%, 0.005%, 0.025%, 0.05%); SDS-PAGE and Western blot with anti-6His antibody; monomer to dimer

MobK-6His (enzyme)
stoichiometry N: 2
